Assay: soluble fraction after stress (log2 fold change); higher = more stays soluble; pooled small domains, quantitative proteomics
Conditions: stress: 75 degC
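Note: 20 min heating vs room temperature control held 20 min.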

| Sequence | soluble fraction (log2) |
| --- | --- |
| HMQNYLEFIGNELKALTSIPSPSGYTKDVAAYLMKTLSDMGYEPQLSNKGNVFVTIGGEGNPLVLAAHVD | 0.0285 |
| HMQNYLEVLRLHELGMGQRKIAQQVHTSRDTIRKIIAIAENQGLNYSNLIGKTDNELSKVFG | -0.622 |
| HMQPAGEGAILRYLSSGAVKGIGPVMAREIVRRFGTDTFRVMEQEPEKLLKVKGITEQRLQTIMESYQD | -0.198 |
| HMQPDPAFVAWVDANPWYKENRTLRALVHDYAEEVKRQEPALIGTAFLDRVKQLVQSEHPELFD | -0.234 |
| HMQPETIEDATNLYLEAARATLQLIEQNNVIARDVKRLLEHLDNDMARIETLLAEMLSRRDHWLRHIH | 0.148 |
| HMQPIQPNQAKYLDGLSSKYKGKGNHSQAAQLTALRDALNAGDHAKAREIYDKLDYEPQAEAAH | 0.364 |
| HMQPNVTRERILAAAMTVFAQKGWQKTSLDEVAAAAGMTKGAIYWHFRNKNDLFFALLDARLQRD | -2.16 |
| HMQQAVTMQKPGRLLRNADGNGGAVRDLDVGMMLYPTGNRSELMWEVDDELGNRGWVNSTLFGLS | 0.013 |
| HMQQDGSSSLGENMLNQELQARGVVPSEIPQEVWERVIQEAGKKSKREIYADIGLGRSLAAGFAQRLAA | 0.145 |
| HMQQDVLKLKSGGNYKGEYINIESAYVLFKPEGGNATQRIKVNEIQMLKLADGTEVIFGGRVK | -0.237 |
| HMQQEPNFYIVDGNTNQIVDRYYAPDSNVAHQYLGQWRQQHDPQETGNYRYGRLSSETEERYRNLAA | 0.22 |
| HMQQFGANVRLIRKARQMSIKQLSELSGVSQTMISEVERGLKIPTIDVAGKIAAALGIDLTNLMG | -2.16 |
| HMQQIQILPDGKIKLPDLSGTNMREAIEILHKGGLRMKPYGSGNAYQQKPAAGETVASGTTVEVLSL | 0.151 |
| HMQQLAEQIPTDRPYISIAEAVVLFGISRDTIYRQIRKGNIPAVNLGERLTRISRIHIEAMFPKV | -0.305 |
| HMQQNYREMHKVKKGETLFGIARRYEITVDQLIKANPDMNAVGYELKKGDYIFIPYPDGQKP | -0.427 |
| HMQRAEQLPAELAAVFRAETEAWGFFERQPPGYQRVAIHWVASAKQEATRLRRLAKLIEESAAGRR | -1.61 |
| HMQRDTIAISAIPTAIKTYLSSTYPTDTLVHAFVNKDQSIVVISKNIDFYATSFSTANAFIKRIQLPA | -1.41 |
| HMQRFIHITVSDVHQATRLLEEEMQLTNYSVAENNAIKIFEFTYEPQEINHLFGKNGIEVSSLFIGS | -0.0559 |
| HMQRNLILKLDTDQPEIYKKLESIFVEINGLLVPFFIEKIIWSKQDSLNILFKNSSEALVEQLIGKNVFLP | 0.2 |
| HMQRSVNYSELHEIKERVFDALYSSPMSMPDLLAWLKGDEEHTISVIRLMQDNGDIEMGEDGRLAVV | -0.383 |
| HMQSISLEEAKSAALDDAQLGIDEVEFLKTERNTDGDTSYYDIQFLVNGTIYKYQINTETGAILHVDYEA | 0.0632 |
| HMQSITAGDKVRVKNYTVSGGKKRGKVYGGAGTFVVYYEKYDVISVTGDRVVIGIGKAVTAAVHIDDLEK | -2.07 |
| HMQSKSEINELPKSIHMAFSPKNFELFIDNLKINEIDFSNWKGELNTIQERVDGQRQIWIQDPQGYWIEIN | -0.0964 |
| HMQSLIVPVPKPEDDPVYKDGIKQDPVEVVSIWLGRDYLNMILNLKVSTGKGHTFGIVEDVS | -0.157 |

| Sequence | soluble fraction (log2) |
| --- | --- |
| HMQSNDTAEIEAVVKEIMAANERVVNDYRSGNTKVVSFFVGQVMKATKGKANPKVVNEVLAKLLK | -0.823 |
| HMQSVPELDQQFKIAIENNDFIKLAQLKEQGYHPSKEVMQSLSNTTPNNTIIAVQKIFGLKA | 0.546 |
| HMQSVSANSVQKQLADIIDGEDKTHPLSDRELTEKLVAQGVQISRRTVAKYREAMGIPGASGRKQ | -0.0543 |
| HMQTAAANPSPESILQAREAAGLSQSEAGALIYSGLRSWQHWEWGTRRMHPGLFELFLKKTGQI | -1.83 |
| HMQTKMVYSDLVNSIKSEQVSSMLVSGNTVTVTLTNGDKAKVKIPSLDTLQADVGKEMNDQMDKGTLKQE | 0.18 |
| HMQTKNYVYFNNTENWSTVNVYVWSSKDSTYMSWPGKAMESIGNNTYRFELPNGAEYAIFNNGSAQTVD | -0.335 |
| HMQTKSDMVYHRVREDIVNGVFAPGERLLISAVAKQYGVSEIPVREAFRVLSQEGFLKTRPNSGFVVS | -0.44 |
| HMQTMTAGERREAILRELEQAQGPVSASALAKRFHVSRQAVVGDVAMLRALNSPIAATPRGYVLTR | -0.322 |
| HMQTMTDDQVMQYVISQQEKGATQQDIVSKLLQKGVTVDQMRRIRKKYEAQQSQPGALDLTGSS | 0.654 |
| HMQTNEAIINQAVQAAEAQNITTRSQAVDALKANGMTEAQARQLAVQRGISYDQLINELFPME | 0.0149 |
| HMQTPVTVGDTMPNLIGTPKRLLLELLNRTDITVKLTGDGYVTAQSPAAGTPIAKGMIIELSL | -2.17 |
| HMQTQVEVLVKYVLEDGTVYKEDKVSADIGAILDSGDLPMLSNDMKFIDDFLFYEVKESDNVIERKVAKLV | -0.782 |
| HMQTQYIVDTKTTLLVRTGPGKSNSQFGRLKNGETINVYAIKNGWAEISYNGKTGYVSEQYIKLA | -3.59 |
| HMQTTDTGAIETIVDELMAANPDKVEAYRGGKTGLQGFFMGQVMKQLGGQGNPKVISAIVTEKLE | 0.603 |
| HMQTTPAGHELLIRYFANGNIRERGMMKDGKRNGIWIFYDESGMEIRKTKYKMGKIISDYDLN | -2.6 |
| HMQTTQQLIRNLRLKQAATLLADKRHSITEVATLTGFTHPTYFATAFREMFGVSPSEYMEQHI | -1.49 |
| HMQTYNQLKRGMTEWIQAGQKQKAYELFAGVAGQLSLSSAAGKKQYNELVTILNRAGFGIPLE | -1.12 |
| HMQVEMVLSQEAHEWLLQRGFIPEYGAREMDRVIAAHLKPLLMREILFGTLKAGGKVRVQVENGALKLQP | -3.08 |
| HMQVLSESDVEDIKAISGGDKAYDNLMEWAGSKLSKQDAKDYDDVLATGNKTAITFAVKALMAQYENAN | -0.198 |
| HMQVPFGFQRNPSTGTLEEKAEEQLIINQVLSLKNSGIGVSEISKRLGELSVSRIYRIINTAKKNAS | -0.812 |
| HMQVSDANQLTDVVKSIIKQYPVEVEKYKSGKKALFGFFMGKVMENLKGKSNPKILKNVLTEILD | 0.22 |
| HMQVSDTNTLEQFAKEVIEANPKAVEDYHQNPLAIGFLVGQLMKVSKGSANPQTGKEILEKLL | -0.112 |
| HMQVSDVTTIRALVEEVLSSSPQQLAQYRAGKLSLKGYFVGQVMKKGKGQLNAAAVNNLLDEIL | -2.41 |
| HMQVSEQVQRLLDALENDTLTTKELMDRLGLKHRPTFRKNYLLPSMKLGLVEMTIPDKPNSSRQKYRRRQ | -0.566 |

| Sequence | soluble fraction (log2) |
| --- | --- |
| HMQVTEVDYGTFMKMVEEKNVGEVEVGNSMIVFTDKDGKAIYKTGAMNDPNLTERLYNAGASFTKE | 0.144 |
| HMQVTGLTAENAHRVTMIREKGTDHPPVPFHFRKEHHGTGNYVHLYGNPEDRNELHSRDFKDWEAVAFK | 0.211 |
| HMQVVDWSQVDKEDYLLATKRRAVSTGELKFLLLNNLTYDLTQTRFFKGMDASYYYEGYNLYQTGE | 0.0696 |
| HMQWGKVRRLPSGRYQASYVHKGTRYTAPETYTVQGRAHGWIESERRLIVTDTWTPPDTRPS | -1.24 |
| HMQWLDSIRSRLRVGQTISYFEPRENASSSGLIIELRRKRVLVLEIATQKRWLIEYAAINVDG | -0.279 |
| HMQWQPSEEAMQRLEQHGIPRAFSFSQLDAFVLQGQEQGSNRNDWNTRFFRFIKNQWVYAQN | -2.59 |
| HMQYDSYTVEEPAKLLDWLLAHLRQSRTKIKATLQGHGIKVNGKTVTQFDYPLEPGMKIRVSLTK | -1.24 |
| HMQYKTRVINLSILEVGMVLGRDLINKDGKIIVKKDVAISDFLKDHLIGLSKIKEIEPQIYIKV | -1.15 |
| HMQYSIQVNKLLKAMREDVWYTANEILDLLKLKSKETLRKNYLDPAINNKLIILELPDKPTSRNQRYKI | -2.03 |
| HMQYTQKTMYINDSYVNLRKSASTSSDIIMVVELNTKLTVIGEDGDWYKVKTSSGNAYVLKTLLSNEKKET | -3.22 |
| HMQYTTDEVRERVLSVLNQLLLRWIVREGKDMFNIQANAVEISEGIKGELNTELEKIGLAATGFQIDSV | -0.393 |
| HMRADRLISMLMLLQARGKITAEELAVELGVSQRTIYRDIEALSFAGVPVYAERGPGGGIGLLEPY | -1.73 |
| HMRAEPNSNYSLAIIYKNRYDIAVKKKDAVKEVEYGKMVYEYLNKYVVLSGNKSAKYKKILNYFSSY | -3.02 |
| HMRAFTPSEAQVAHARRVMEAFWQHQREGHGAFALDGKMVDAPIVKAAARVLARAGLQDPNHPIHLA | -0.332 |
| HMRALPFSFANRHGVLIREISDGVAHAVYRIGSSPLGLAEARRFVGMPLMLTPVAREAFDSLLQQTYEQG | -2.39 |
| HMRAPEIEAARSDLDVGQTVQIVRHLHGNQYEVFYRGAQWQAEAVGSSGANDAQTAVITGKNGNILLIQI | 0.0986 |
| HMRAVPTKLAPFVEVLKAMLEADGHRPKAQRRTAKALHLELISRGYAGGYTRLTDYIRDWRQQQG | -2.36 |
| HMRDANYFINPIHEWQKRYEALRASFVDRLPAQAVAQRFGYTITYIHLLRHQFKSGKIDFSEPVPEG | -4.19 |
| HMRDFTQPQTASIGPRMREALARGTMTVEELREQFRTQEFPHESVRTAFLEELERVAAELGLA | 0.349 |
| HMRDISTDTSAWTFQDIKRYYDPQDLLTEKQVGQALSLIKGRNLNPLLNEVYIVAYKKKNGGAEFSLIV | -0.224 |
| HMRDPLNTGFRQTLKDIVNSLPKNELYSPGVREEYIYPKIGVTSLGMEASMVLNGLISSRRKNIELKEKN | 0.369 |
| HMRDPVDKDNYLGDWDKNKTYPAGYVMTFGDKNYLALQEVPAGTKPGATDPDPFWVLDTGKTLKD | -0.14 |

— the domain aggregation screens of Martell et al. (2025)
